Measurements taken from the nanobody polyreactivity screen of Harvey et al. (2022).

Assay: yeast display, Sf9 membrane polyspecificity reagent, FACS + sequencing; frameworks hold sequencing errors
How it was run: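 Polyreactivity labels are assigned by the sorting gate from which each nanobody was recovered. The gates were low and high (top ~1%), set on anti-HA fluorescence for expression and streptavidin fluorescence for reagent binding. Before sorting, galactose-induced (36–48 hours) yeast display cells were stained for 1 hour at 4 °C with 10% biotinylated, detergent-solubilized Sf9 membrane reagent.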

Sequence	polyreactivity (PSR sort gate)
QVQLVESGGGLVQAGGRLRLSCAASGRTFRGYAMGWYRQAPGKERELVAAITSGGSTNYADSVKGRFTISRDNAKYTVYLQMTSLKPEDTAVYYCAAEPYSWDTWVDYDYWGQGTQVTVSS	low polyreactivity
QVQLVESGGGLVQAGGSLRLSCAASGRIFSSYAMGWYRQAPGKERELVAAISGSGGRTYYADSVKGRFTISRDNAKNTVYLQMNSLKPEDTAVYYCNARRRSPYSTGVAYDYWGQGTQVTVSS	high polyreactivity
QVQLVESGGGLVQAGGSLRLSCAASGSISTYYAMGWYRPAPGKERDLVAAISKSGGSKYYADSVKGRFTISRDNAKNTVYLQMNSLKPEDTAVYYCAARYKGRAFWMDYWGQGTQVTVSS	high polyreactivity
QVQLVESGGGLVQAGGSLRLSCAASGLTFLVYAMGWYRQAPGKERELVAAITSIGDSTFYADSVKGRFTISRDNAKNTVYLQMNSLKPEDTAVYYCNADGPAGDNKFTLLDYDYWGQGTQVTVSS	low polyreactivity
QVQLVESGGGLVQAGGSLRLSCAASGRIIVLYAMGWYRQAPGKERELVASIRSGGSTNYADSVKGRFTISRDNAKNTVYLQMNSLKPEDTAVYYCAARIRSVVPFDMDYWGQGTQVTVSS	low polyreactivity
QVQLVESGGGLFQEGGSLRLSCAPCGLIFFSYAMGWYRQAPGTERELVAAISRLGGRTYYADSVKGRFTISRDNAKNTVYLQMNSLKPEDTAVYYCATRVWTPIFGYEYWGQGTQVTVSS	low polyreactivity
QVHLVESGGGLVQAGGSLRLSCAASGRNFSSYAMGWYRQAPGKEWELVAAIRRGGGSTSYADSVKGRFTISRDNAKKTVYLQMNSLKPEDTAVYYCAADSPRGQVHYIGGYWGHGTQVTVSS	low polyreactivity
QVQLVESGRGLVQAGGSLRLSCAASGRIFNLNAMGWYRQAPGKERELVAAITRGGRTIYADSVKGRFTISRDNAQNTVYLQMNSLKPEDTAVYYCAAAYYGSHGRYDYWGQGTQVTVSS	high polyreactivity
QVQLVESGGGLVQAGGSLRLSCAASGSIFGGYAMGWYRQAPGKERELVAAISSGGSTYYADSVKGRFTISRDNAKNTVYLQMKSLKPEDTAVYYCATSTYAYRRNSYYYTRPRFGYWGQGTQVTVSS	high polyreactivity
QVQLVESGGGLVQAGGSLRLSCAASGFIFLGYAMGWYRPAPGKERELVATITWRGGSTYYADSVKGRFTISRDNAKNTVYLQMNSLKPEDTAVYYCAATRGWLHSFARDDHDYWGQGTQVTVSS	high polyreactivity
QVQLVESGGGLVQAGGSLRLSCAASGFTFVRYAMGWDSQAPGTERELVAAMSRSGGSTYYADSVKGRFTISRDNAKNTVYLQMNSLKPEDTAVYYCAADIKGRTGDAYDYWGQGTQVTVSS	low polyreactivity
QVQLVESGGGLVQAGGSLRLSCAASGSIFRWNAMGSYRQAPGKERELVAVINSSGGSTYYADSVKGRFTISRDNAKNTVYLQMNSLKPEDTAVYYCAAVIYKIIYGQYAYDYWGQGTQVTVSS	low polyreactivity
QVQLVESGLGLVQAGASLRVSCAASGSTFIFNTMGWSRQAPGKERELVAAIRLSGGSTYYADSVKGRFTITRDNAKNTVYLQMNSLNPEDTAVYYCARRLATRGHTYDYWGQGTQVTVSS	low polyreactivity
QDQLEESGGGLVQAGGSLRLSCAASGFTFHINSMGWDREAPGKEREMVAAITYSGGSTYYADSVKGRFTISRDPAKNTVYLQMNCLKPEHTAVDYCATTWYFVASWFVAIYVYWGQGTQVTVSS	low polyreactivity
QVQLVESGGGLVQAGGSLRLSCAASGRTFYNAMGWYRPAPGKERELVAAISGSGGSTYYADSVKGRFTISRDNAKNTVYLKMNSLKPEDTAVYYCAARSVWWQVSQGNYWGQGTQVTVSS	low polyreactivity
QVQRVESGGGLVQAGGSLRLSCAASGSIFRTYAMRWYRQAPGTERELVAAITSRGSSTYYADSVKGRFTISRDNAKNTVYLQMNSLKPEDTAVYSCPADYRTSYKGVLFSMYYWGQGTQVTVSS	high polyreactivity
QVQLEESGGGLVQAGGSLRLICAAYGIIFYIYTMGWYRQEPVKERELVAAINPGGSRYYADSVKGRFTISRDNAKNTVYLQMNSLKPEDTAVYYCNKLSYGRSGYWGQGTEVTVSS	high polyreactivity
QVQLVESGGGLVQAGGSLRLSCAASGRIFSRYAMGWYRQAPGKERELVAAISRRGGSTYYADSVKGRFTISRDNAKNTVYLQMNSLKPEDTAVYYCAADFSPYYDLATEISDYWGQGTQVTVSS	high polyreactivity
QVQLVESGGGLVQAGGSLRLSCAASGLIFRGNDMGWYRQAPGKERELVAGINSSGSTNYADSVKGRFTISRDNAKNTVYLHMNSLKPEDTAVYYCAARAIVSFDYCGQGTQVTVSS	low polyreactivity
QVQLVESGGGLVQAGGSLRLSCAASGFTFSKYAMGWYRQAPGKEREFVAAISSRGGRTYYADSVKGRFTISRDNAKNTVYLQMNSLKPEDTAVYYCAVDVHLVTEYDYWGQGTQVTVSS	high polyreactivity

Sequence	polyreactivity (PSR sort gate)
QVHLVESGGGLVQAGGSLRLSCAASGRTFWVYAMGWYRQAPGKERQLVAAINRRGGGTYYADSVKGRFTISRDNAKNTVYLQMNTLKPEDTAVYYCAAVSTRVRVNYDSWGQGTQVTVSS	high polyreactivity
QVQLVESGGGLVQAGGSLRLSCAASGRTLTGYDMGWYRQAPGKERELVAAITWSGGSTFYADSVKGRFTMSRYNAKNTVYLQMNSLKPEDTAVYYCNVTDVTEPSLIYGYYWGQGTQVTVSS	low polyreactivity
QVQLVESGGGLVQAGGSLRLSCAASGSTFTRYAMGWYRQAPGKERELVAAISRGGSTNYADSVKGRFTISRDNAKNTVYLQMNSLKPEDTAVYYCAKGSNRSRGYYWGQGTQVTVSS	high polyreactivity
QVQLVESGGGLVQAGGSLRLSCAASGSIFNVNSMGWYRQAPGKERELVAAISSGGDTYYADSVKGRFTISRDNAKNTVYLQMNSLKPEDTAVYYCAKQSYTLYTLLYDYWGLGTQVTVSS	low polyreactivity
QVQLVESGGGLVQAGGSLRLSCAASGSTFDSNVMGWYRQAHGKERELLAAINYSGVRTYYADSVKGRFTISRDNAKNTVYLQMNSLKPEDTAVYYCNARLFSYRYPEGGYWGQGTQVTVSS	high polyreactivity
QVQLVESGGGLVQAGGSLRLSCAASGSIFVSNARVWYRQAPGKERELVAANTSSGSTDYADSVKGRFTISRANAKNTVYLQMNSLKPEDTAVYYCAAESYHTFFLWSLNDSWGQGTQVTVSS	low polyreactivity
QVQLVESGGGLVQAGGSLRLSCAASGSTFYSYAMGWYRQAPGKERELVAAITSGGSTNYADSVKGRFTISRDNAKNTVYLQMNSLKPEDTAVYYCAAVVSTVDGMEYWGQGTQVTVSS	low polyreactivity
QGQLVESGGGLVQAGGSLRISCGASGYIFGDKAMGWYRPEPGKARELVAAITQTGANTYYADSVMGRFTISRDNAKNTVYLQMNSLKPEDSAVYYCNKVSVVYSRSKGFYYTYLKYEFWGQGTQVTVSS	low polyreactivity
QVQLVESGGGLVQAGGSLRLSCAASGSTFTYNAMGWYRQAPGKERELVASISSGTTTYYADSVKGRFTISRDNAKNTVYLQMNSLKPDDTAVYYCNADIYTWFQIGGYQYDYWGQGTQVTVSS	low polyreactivity
QVQLVESGGGLVQAGGSLRLSCPAYGSTFGEYAMGWYRQKPGKERELVATITSAGSTYYADSVKGRFTISRDNAKNTVYLLMNSLKPEDTAVYYCAVDPISQGHMDYWGQGTQVTVSS	low polyreactivity
QVQLVESGGGLVQAGGSLRLSCAASGFTFTDYAKGWYRQAPGKERELVAAITKGGGRTYYADSVKWRFTISRDNAKNSVYLQMNSQKPEDTAVYYCNARYQVPYGYWGQGTQVTVSS	low polyreactivity
QVQLVESGGGLVQAGGSLRLSCAASGSTFDNYAMGWYRQAPGKERELVAVITQSGGITFYADSVKGRFTISRDNAKNTVYLQMNSLKPEDTAVYYCNVELDRSWYYYWGQGTQVTVSS	low polyreactivity
QVQLVESGGGLVQAGGSLRLSCAASGLTFSYYAMGWYRQAPGKERELVAAISWSGGITYYADSVKGRFKISRDNAKNTVYLQMNSLKPEDTAVYYCAADGYPTLFDYWGQGTQVTVAS	high polyreactivity
QVQLVESGGGLVQAGGSLRLSCAAYGITFVPNAMGWYRQAPGKERELVAAITSGDSTNYADSVKGRFTISRDNAKNTVYLQMNSLKPDDTAVYYCAADSWAQRPNQGRVSLHYYWGQCTQVTVSS	low polyreactivity
QVQLVVSGGGLVQAGGSLRLSCAASGNIFESYGMGGYRQAPGKERELVANINTSCGSTYYADSVKGRFTISRDNAKNTVYLQMNSLKPEDTAVYYCAAEWYPYPWGYGYWGQGTQVTVSS	low polyreactivity
QVQLVESGGGLVQAGGSLRLSCAASGRIFSYNAMGWYRQAPGKERDLVASISGGGSTYADSVKGRFTISRDNAKNTVYLQMNRLKPADTAVYYCNAVHFSYEYDYWGQGTQVTVSS	high polyreactivity
QVQLVESGGGLVHAGGSLRLSCAASGRIFTAYAMGWYRQAPGKERELVASISTSGGRTYYADSVKGLFTISRDNAKNTVYLQMNSLIPEDTAVYYFAADFESYSRYYDGYDYWGQGTQVTVSS	high polyreactivity
QVQLVESGGGLVQAGGSLRLSCAASGITFEVYAMGWYRQAPGKERELVAVITSVGSTNYADSVKGRFTISRDNAKNTVYLQMNSLKPEDTAVYFCAAEKWTVRRFNPYTYYRFDYWGHGTQVTVSS	low polyreactivity
QVQLVESGGGLVQAGGSLRLSCAASGSIFVWYVMGWSRPAAGKERELVAAITWSAARTYYADSVKGRFTISRDNAKNTVYLQMNSLKPEDTAVYYCAADHVSYQPSSRIFDYWGQGTQVTVSS	low polyreactivity
HVQLVESGGGLVQAGGSLRLSCAASGSTFTTNVRGWYRQAPGKERELVAAISWNGASTNYADSVKGRFTISRDNAKNTVYLHMNSLNPEDTAVYYCAADVTGLVWDSYYYYFLYEYEYWGQGTQVTVSS	high polyreactivity
